Source: patent US6156551
Where no end group is shown, it is not given here. [ ]: non-standard residue; d: D form. pY = N[C@@H](Cc1ccc(OP(=O)(O)O)cc1)C(=O)O

Key:
[1] = biological target: [^32 P]reduced carboxyamidomethylated and maleylated-lysozyme (Gallus gallus (Chicken)) (UniProt P00698)
[2] = biological target: reduced carboxyamidomethylated and maleylated-lysozyme (not phosphorylated) (Gallus gallus (Chicken)) (UniProt P00698)
[3] = biological target: T1, D61A activated mutant of SHP-2 (human)
T1 sequence: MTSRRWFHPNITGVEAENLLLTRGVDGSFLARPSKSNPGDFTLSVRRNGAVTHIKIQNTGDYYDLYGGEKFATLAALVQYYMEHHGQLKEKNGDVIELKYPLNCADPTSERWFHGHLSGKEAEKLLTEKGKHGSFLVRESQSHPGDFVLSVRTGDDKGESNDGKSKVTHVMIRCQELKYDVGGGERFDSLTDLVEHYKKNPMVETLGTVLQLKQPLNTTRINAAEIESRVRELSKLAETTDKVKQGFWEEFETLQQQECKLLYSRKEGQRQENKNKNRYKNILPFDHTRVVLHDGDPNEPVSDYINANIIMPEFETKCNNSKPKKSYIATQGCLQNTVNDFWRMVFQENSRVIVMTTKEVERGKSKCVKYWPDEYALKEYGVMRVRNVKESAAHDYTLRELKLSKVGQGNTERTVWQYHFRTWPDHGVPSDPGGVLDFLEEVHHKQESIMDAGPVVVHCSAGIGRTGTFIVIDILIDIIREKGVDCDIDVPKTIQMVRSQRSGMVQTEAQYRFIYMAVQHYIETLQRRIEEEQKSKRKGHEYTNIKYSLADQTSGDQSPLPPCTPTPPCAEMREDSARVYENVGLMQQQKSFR

## E76A activated mutant of SHP-2 (enzyme)
[1]
  phosphatase activity ([32P] phosphate released from [^32 P]RCM-lysozyme) (pmol/min-pmol): 100

## recombinant full length Src kinase (enzyme)
[2]
  phosphorylation of RCM-lysozyme with [γ-^32 P] ATP: 2000 cpm/pmol

B1: SHPS-1 phosphotyrosine peptide DIT[pY]…[pY]ASIQTS-NH2 (peptide)
peptide: DIT[pY]ADLNLPKGKKPAPQAAEPNNHTE[pY]ASIQTS-NH2
modifications: N-terminus assumed
SMILES: CC[C@H](C)[C@H](NC(=O)[C@H](CO)NC(=O)[C@H](C)NC(=O)[C@H](Cc1ccc(OP(=O)(O)O)cc1)NC(=O)[C@H](CCC(=O)O)NC(=O)[C@@H](NC(=O)[C@H](Cc1c[nH]cn1)NC(=O)[C@H](CC(N)=O)NC(=O)[C@H](CC(N)=O)NC(=O)[C@@H]1CCCN1C(=O)[C@H](CCC(=O)O)NC(=O)[C@H](C)NC(=O)[C@H](C)NC(=O)[C@H](CCC(N)=O)NC(=O)[C@@H]1CCCN1C(=O)[C@H](C)NC(=O)[C@@H]1CCCN1C(=O)[C@H](CCCCN)NC(=O)[C@H](CCCCN)NC(=O)CNC(=O)[C@H](CCCCN)NC(=O)[C@@H]1CCCN1C(=O)[C@H](CC(C)C)NC(=O)[C@H](CC(N)=O)NC(=O)[C@H](CC(C)C)NC(=O)[C@H](CC(=O)O)NC(=O)[C@H](C)NC(=O)[C@H](Cc1ccc(OP(=O)(O)O)cc1)NC(=O)[C@@H](NC(=O)[C@@H](NC(=O)[C@@H](N)CC(=O)O)[C@@H](C)CC)[C@@H](C)O)[C@@H](C)O)C(=O)N[C@@H](CCC(N)=O)C(=O)N[C@H](C(=O)N[C@@H](CO)C(N)=O)[C@@H](C)O
[3]
  activation of phosphatase activity on [^32 P]RCM-lysozyme by the phosphotyrosine peptide (fold higher than wildtype SHP-2): 5
